According to patent US9474782B2, “Use of decorin for increasing muscle mass” (Association Francaise contre les Myopathies, priority 2009, dated 2016):
Several values for one entry are separate records, joined by “and”; a condition that tells them apart may be missing. Identical values can stand only once.

B1: mDecorin: recombinant mouse decorin (mDecorin) of sequence SEQ ID NO: 6, provided by R&D Systems (protein)
chain: MKATLIFFLLAQVSWAGPFEQRGLFDFMLEDEASGIIPYDPDNPLISMCPYRCQCHLRVVQCSDLGLDKVPWDFPPDTTLLDLQNNKITEIKEGAFKNLKDLHTLILVNNKISKISPEAFKPLVKLERLYLSKNQLKELPEKMPRTLQELRVHENEITKLRKSDFNGLNNVLVIELGGNPLKNSGIENGAFQGLKSLSYIRISDTNITAIPQGLPTSLTEVHLDGNKITKVDAPSLKGLINLSKLGLSFNSITVMENGSLANVPHLRELHLDNNKLLRVPAGLAQHKYIQVVYLHNNNISAVGQNDFCRAGHPSRKASYSAVSLYGNPVRYWEIFPNTFRCVYVRSAIQLGNYK
modifications: murine DCN

Assays:
mdx mice = assay: Weight of tibialis anterior muscles after intramuscular injection into dystrophic mdx mice; type: in vivo, mouse; conditions: for Activity of decorin fragment on muscle growth (ability to increase muscle mass), in words: decorin fragments, intramuscular injection
Procedure: The protein used was recombinant mouse decorin (mDecorin) of sequence SEQ ID NO: 6, provided by R&D Systems. Twenty-four to forty hours before the injection, 100 μl of 150 mM sterile NaCl and 6 μl of 250 μM ZnCl2 were added to 100 μg of mDecorin powder. The final volume was 106 μl with a final concentration of approximately 1 μg/μl. For the injections into the control muscles a mixture was also prepared of 100 μl of 150 mM NaCl and 6 μl of 250 μM ZnCl2. All these solutions, after being vortexed, were stored at 4° C. In Vivo Injection mdx dystrophic ([…] muscular dystrophy) or gamma-sarcoglycan −/− mice were used that were at least 6 weeks old. 20 μg of mDecorin, i.e. 22 μl of the solution described above (20 μg Decorin+15 μM ZnCl2/22 μl NaCl), were injected into the left tibialis anterior (LTA), the muscle treated. 22 μl of the control solution described above (15 μM ZnCl2/22 μl NaCl) were administered into the control muscle, the right tibialis anterior (RTA). A specific number of days after injection, the mice were sacrificed and the RTA and LTA were removed, weighed then frozen for further histological study. Preparation and Injection of the Solution Containing the Peptide mDCN 31-71: […] It was dissolved at 2 mg/ml in 150 mM NaCl and stored at −80° C. For injections, the preparation protocol was identical to that used for the protein, i.e. 24-40 hours before injection, the desired amount of peptide was removed from the stock solution and mixed with a solution of zinc chloride (ZnCl2) and 150 mM NaCl, to produce a final zinc concentration of 15 μM. The injection protocol was identical to that used for the protein. The RTA and LTA muscles were collected 7 (D7), 14 (D14) or 21 (D21) days after the injection and weighed. The experiment was repeated on three separate mice each time. The results are summarised in the following tables: mdx Mice were Injected Intramuscularly into the TA with the Following Formulations: LTA 1: 65 μg peptide 41 DCN+15 μM ZnCl2/33 μl NaCl; RTA 2: 15 μM ZnCl2/33 μl NaCl. At D18, the mice were sacrificed and the weight of the RTA and LTA muscles was measured.

[1] = system: gamma-sarcoglycan -/- mice; assay: Weight of tibialis anterior muscles at D18 after intramuscular injection into dystrophic gamma-sarcoglycan -/- mice; type: in vivo; conditions: D18, one value per mouse
Procedure: The protein used was recombinant mouse decorin (mDecorin) of sequence SEQ ID NO: 6, provided by R&D Systems. Twenty-four to forty hours before the injection, 100 μl of 150 mM sterile NaCl and 6 μl of 250 μM ZnCl2 were added to 100 μg of mDecorin powder. The final volume was 106 μl with a final concentration of approximately 1 μg/μl. For the injections into the control muscles a mixture was also prepared of 100 μl of 150 mM NaCl and 6 μl of 250 μM ZnCl2. All these solutions, after being vortexed, were stored at 4° C. In Vivo Injection mdx dystrophic ([…] muscular dystrophy) or gamma-sarcoglycan −/− mice were used that were at least 6 weeks old. 20 μg of mDecorin, i.e. 22 μl of the solution described above (20 μg Decorin+15 μM ZnCl2/22 μl NaCl), were injected into the left tibialis anterior (LTA), the muscle treated. 22 μl of the control solution described above (15 μM ZnCl2/22 μl NaCl) were administered into the control muscle, the right tibialis anterior (RTA). A specific number of days after injection, the mice were sacrificed and the RTA and LTA were removed, weighed then frozen for further histological study. A second series of experiments was performed on four gamma-sarcoglycan −/− mice. The protocol was identical to that described for mdx mice. The mice were sacrificed on D18.

Molecule	Activity of decorin fragment on muscle growth (ability to increase muscle mass), in words (mdx mice)	Weight of treated muscle (LTA) (mdx mice; 65 μg peptide + 15 μM ZnCl2/33 μl NaCl intramuscular into left tibialis anterior, D18, one value per mouse)	Growth (mdx mice; 65 μg peptide + 15 μM ZnCl2/33 μl NaCl intramuscular, treated LTA vs control RTA, D18, one value per mouse)	Weight of treated muscle (LTA) (mdx mice; 20 μg mDecorin + 15 μM ZnCl2 intramuscular into left tibialis anterior, Day 7, one value per mouse)	Weight of treated muscle (LTA) (mdx mice; 20 μg mDecorin + 15 μM ZnCl2 intramuscular into left tibialis anterior, Day 14, one value per mouse)	Weight of treated muscle (LTA) (mdx mice; 20 μg mDecorin + 15 μM ZnCl2 intramuscular into left tibialis anterior, Day 21, one value per mouse)	Growth in % (100*LTA/RTA) − 100 (mdx mice; 20 μg mDecorin + 15 μM ZnCl2 intramuscular, treated LTA vs control RTA, Day 7, one value per mouse)	Growth (mdx mice; 20 μg mDecorin + 15 μM ZnCl2 intramuscular, treated LTA vs control RTA, Day 14, one value per mouse)	Growth (increase in muscle mass) (mdx mice; 20 μg mDecorin + 15 μM ZnCl2 intramuscular, treated LTA vs control RTA, Day 21, one value per mouse)	Growth (increase in muscle mass) (mdx mice; 20 μg mDecorin + 15 μM ZnCl2 intramuscular, treated LTA vs control RTA, Day 21, one value per mouse, listed as decorin)	Weight of treated muscle (LTA) ([1]; 20 μg mDecorin + 15 μM ZnCl2 intramuscular into left tibialis anterior)	Growth ([1]; 20 μg mDecorin + 15 μM ZnCl2 intramuscular, treated LTA vs control RTA)
SEQ ID NO:15: fragment of 30 residues (residues 42 to 71 of murine decorin SEQ ID NO: 6) (DNPLISMCPYRCQCHLRVVQCSDLGLDKVP; murine 42-71 DCN)	also active	–	–	–	–	–	–	–	–	–	–	–
mDCN 31-71: peptide (SEQ ID NO: 7) corresponding to residues 31-71 of murine decorin, zinc-binding N-terminal part, synthesised by NeoMPS (DEASGIIPYDPDNPLISMCPYRCQCHLRVVQCSDLGLDKVP; murine 31-71 DCN)	had the required activity	0.0583 g and 0.0468 g and 0.05 g	8.77% and 19.39% and 24.69%	–	–	–	–	–	–	–	–	–
B1	–	–	–	0.0682 g and 0.0781 g and 0.0771 g	0.1124 g and 0.103 g and 0.0911 g	0.1041 g and 0.0943 g and 0.1003 g	3.18% and 0.90% and 2.94%	58.98% and 48.41% and 6.67%	53.09% and 66.31% and 37.21%	53.09% and 66.31%	0.0505 g and 0.0485 g and 0.0593 g and 0.0551 g	10.75% and 17.43% and 12.31% and 24.10%
